According to patent publication US20200231659A1 (published 2020):

T1: cystic fibrosis transmembrane conductance regulator (CFTR) inhibitory factor (Cif) (Pseudomonas aeruginosa)
T1 chain: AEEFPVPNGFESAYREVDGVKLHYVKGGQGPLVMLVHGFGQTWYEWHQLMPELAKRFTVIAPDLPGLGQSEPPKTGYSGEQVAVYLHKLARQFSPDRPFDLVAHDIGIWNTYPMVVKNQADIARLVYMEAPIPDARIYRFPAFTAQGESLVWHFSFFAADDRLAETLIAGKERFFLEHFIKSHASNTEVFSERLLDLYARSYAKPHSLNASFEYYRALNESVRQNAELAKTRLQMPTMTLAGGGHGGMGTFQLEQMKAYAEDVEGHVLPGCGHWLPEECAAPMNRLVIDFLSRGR

B1: VHH CLONE 320 (VHH)
VHH: DVQLQASGGGLVQPGGSLRLSCATSTSVFSITTLGWYRQAPGKQRELVASMKRGGDTNYADSVKGRFTISRDNARNTVFLQMNNLTTEDTAVYYCNAAILAYTGAVTNYWGQGTQVTVSS
B2: VHH CLONE 116 (VHH)
VHH: EVQLVESGGGLVQPGGSLRLSCTASGSILKIYTMDWYRQAPGKQRDLVATVSSRGDTDYTDSVKGRFTISRDDAKNTAYLQMSSLKPEDTAVYYCNFYIQSRTAPFNDYWGQGTQVTVSS
B3: VHH CLONE 205 (VHH)
VHH: DVQLQASGGGLVQPGGSLRLSCAATGSTDRIAFMGWYRQAPGKLRELVAGITSDGRTNYADDVDVSGRFTISRDSAKNMVYLQMNSLKPEDTAVYYCNADITLAMGGLRVYWGQGTQVTVSS
B4: VHH CLONE 213 (VHH)
VHH: EVQLVESVGGLVQPGGSLRLSCVASGNIGDIYTMGWYRQAPGKQRELVATVGDGGLTNFVDSVKGRFTISRDKSKGTVSLEMNSLKPEDTAVYYCNADVRIGPTGLRVYWGQGTQVTVSS
B5: VHH CLONE 220 (VHH)
VHH: EVQLVESGGGLVQPGGSLRLSCVASGNIGNIYTMGWYRQAPGKQRELVAAVGAGELTNYVDSVKGRFTISRDKSKGTVSLEMNSLKPEDTAVYYCNADVSIGPTGLRVYWGQGTQVTVSS
B6: VHH CLONE 302 (VHH)
VHH: QVKLQESGGGLVQPGGSLRLSCVASGNIGDIYTMGWYRQAPGKQRELVATVGDGGLTNFVDSVKGRFTISRDKSKGTVSLEMNSLKPEDTAVYYCNADVRIGPTGLRVYWGQGTQVTVSS
B7: VHH CLONE 103 (VHH)
VHH: EVQLMESAGGLVRPGGSLRLSCVASGSIGDIYSMGWYRQAPGKQRELVATVGAGGLTDYGDSVLGRFTISRDKTKGTVSLEMNSLKPEDTAVYYCNADVSIGPTGLRVYWGQGTQVTVSS
B8: VHH CLONE 108 (VHH)
VHH: EVQLVESGGGLVQPGGSLRLSCEATGNFDDRGIGWFRQAPGKEREGIACITTRGRTHYAESVEGRFTISTDIANNAVYLQMNSLKPEDTAVYYCAKAIRLTTDRTQCVAFPGVSWGRGTQVTVSS

What was measured:
[1] = biological target: cystic fibrosis transmembrane conductance regulator (CFTR) inhibitory factor (Cif) (Pseudomonas aeruginosa); assay: cell-based or functional assay
[2] = biological target: T1, cystic fibrosis transmembrane …; assay: sandwich ELISA

Binder	IC50 [2] [µg/mL]	also measured
B1	0.0061	% inhibition of Cif activity, [nab] tested 0.23 mg/mL [1]: 9%
B2	0.0312	% inhibition of Cif activity, [nab] tested 0.275 mg/mL [1]: 11%
B3	0.0207	% inhibition of Cif activity, [nab] tested 0.125 mg/mL [1]: 0%
B4	0.011	% inhibition of Cif activity, [nab] tested 0.55 mg/mL [1]: 0%
B5	0.0211	% inhibition of Cif activity, [nab] tested 0.475 mg/mL [1]: 0%
B6	0.0172	% inhibition of Cif activity, [nab] tested 0.5 mg/mL [1]: 0%
B7	0.0168	% inhibition of Cif activity, [nab] tested 0.5 mg/mL [1]: 2%
B8	0.0098	% inhibition of Cif activity, [nab] tested 0.275 mg/mL [1]: 19%
